Our source for the binding result and Kd values is US20230212228A1 (ETH Z RICH, published 2023).

Groups on a side chain read outwards from the residue. No end group written: not given here. Mal‑Cy5 = Cy5-maleimide thiol adduct on the Cys side chain

Test [1] deals with T1, Fib1, N-terminal 30 kDa fragment of fibronectin (Homo sapiens (Human), UniProt P02751 32-290).
T1 construct: also called Fib1 construct; 30 kDa N-terminal fragment of fibronectin containing the N-terminal FnI1-5 modules
The test is described as follows: fluorescence polarization, Cy5-labelled peptide titrated with Fib1. (Polarisation of emitted light reports the rotation of a fluorescent probe.)

Test [2] deals with T1, Fib1, N-terminal 30 kDa fragment of …. Description: fluorescence polarization/anisotropy, Cy5-labelled peptide (48 nM) titrated with Fib1 in PBS pH 7.4.

T1 sequence (P02751 32-290 limits assumed): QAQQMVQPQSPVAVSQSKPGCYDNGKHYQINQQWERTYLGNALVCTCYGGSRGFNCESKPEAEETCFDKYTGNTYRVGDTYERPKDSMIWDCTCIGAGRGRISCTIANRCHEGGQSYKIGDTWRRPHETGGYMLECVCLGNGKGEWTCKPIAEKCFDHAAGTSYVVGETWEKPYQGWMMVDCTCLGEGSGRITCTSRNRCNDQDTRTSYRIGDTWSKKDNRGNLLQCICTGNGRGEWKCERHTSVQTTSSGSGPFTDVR

On to C(Mal‑Cy5)GGGQVTTGSNLVEFTEESLGIVTGAVSDHTTVEDT (also called Cy5-labelled FnBPA5.1) [Cy5-FnBPA5.1], for which the binding result in test [1] is recorded as “binds”.

B1: Cy5-FnBPA5 (peptide)
peptide: C([maleimide-Cy5])GGGQVTTESNLVEFDEESTKGIVTGAVSDHTTVEDTK
modifications: not fully specified
notes: A payload-GGG- format by amide bond is also mentioned; also called Cy5-labelled FnBPA5; FnBPA5 peptide
For B1, binding in test [2] was characterised by a dissociation constant (Kd) of 102 nM.
